From publication PMC8720280 (2021)
Values belong to the binder of their own block, whether it stands above or below them.

Columns and labels:
[1] = target: T1, WT DR5 recombinant protein (IgG4-Fc tagged extracellular domain of human DR5) (human, UniProt O14763-1 56-210, biotinylated with EZ-Link Sulfo-NHS-SS-Biotin for BLI); assay: ELISA
[2] = target: T1, WT DR5 recombinant protein (IgG4-Fc …); assay: BLI
[3] = target: Monkey DR5; assay: BLI
[4] = target: Chimp DR5; assay: BLI
[5] = target: RKCSR DR5; assay: BLI
[6] = target: RKCAR DR5; assay: BLI
[7] = target: T1, WT DR5 recombinant protein (IgG4-Fc …); assay: ELISA; remark: listed apart in the source
[8] = target: T1, WT DR5 recombinant protein (IgG4-Fc …); assay: BLI; remark: listed apart in the source

- Kd [1]: 0.088 nM
- Kd [2]: < 0.001 nM
B1: KMTR2 (antibody, V domains shown)
VH: QVQLVQSGAEMKKPGASVKVSCKTSGYTFTNYKINWVRQAPGQGLEWMGWMNPDTDSTGYPQKFQGRVTMTRNTSISTAYMELSSLRSEDTAVYYCARSYGSGSYYRDYYYGMDVWGQGTTVTVSS
VL: EIVLTQSPATLSLSPGERATLSCRASQSVSSYLAWYQQKPGQAPRLLIYDASNRATGIPARFSGSGSGTDFTLTISSLEPEDFAVYYCQQRSNWPLTFGGGTKVEIK

- Kd [1]: 0.081 nM
- Kd [3]: 0.014 nM
- Kd [4]: < 0.001 nM
- Kd [5]: 0.215 nM
- Kd [6]: 0.266 nM
- Kd [2]: 0.519 nM
- Kd [7]: 0.032 nM
- Kd [8]: 0.0376 nM
B2: Lexatumumab (antibody, V domains shown)
VH: EVQLVQSGGGVERPGGSLRLSCAASGFTFDDYGMSWVRQAPGKGLEWVSGINWNGGSTGYADSVKGRVTISRDNAKNSLYLQMNSLRAEDTAVYYCAKILGAGRGWYFDLWGKGTTVTVSS
VL: SSELTQDPAVSVALGQTVRITCQGDSLRSYYASWYQQKPGQAPVLVIYGKNNRPSGIPDRFSGSSSGNTASLTITGAQAEDEADYYCNSRDSSGNHVVFGGGTKLTVL
